Assay results as given in patent publication US20230192897A1 (NUMAB THERAPEUTICS, published 2023).

Key:
Fc tagged human PDL1 = target: T1, Fc tagged human PDL1 (human, UniProt Q9NZQ7 19-239); test: SPR
T1 construct: Bought (Sino Biological, cat. 10084-H02H); captured on the SPR chip; also called PDL1-Fc chimeric protein
Outline: (§1)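 Kinetics were fitted with a one-to-one Langmuir model to give apparent ka, kd and KD. Binders at 0.12-90 nM (three-fold series) flowed 3 min, with 10 min dissociation and 3 M MgCl₂ regeneration, on a Biacore T200.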

[1] = target: cynomolgus CD137-Fc chimeric protein (cynomolgus monkey, UniProt A9YYE7 24-186); test: SPR
Outline: as §1

[2] = target: T2, cynomolgus PDL1-Fc chimeric protein (cynomolgus monkey, UniProt G7PSE7 19-239); test: SPR
T2 construct: PDL1-Fc chimeric protein from different species captured on the chip
Outline: as §1

Fc tagged human CD137 = target: T3, Fc tagged human CD137 (human, UniProt Q07011 24-186); test: SPR
T3 construct: also called CD137-Fc chimeric protein
Outline: as §1

human PDL1 on cells = human PDL1 on cells (human, UniProt Q9NZQ7 19-290); test: cell-based or functional assay
[3] = target: T4, CD137 on Jurkat NFkB reporter cells (human, UniProt Q07011 24-255); test: cell-based or functional assay
[4] = target: T4, CD137 on Jurkat NFkB reporter cells; test: cell-based or functional assay; remark: listed apart in the source
biotinylated human PDL1 [5] = target: T5, biotinylated human PDL1 (human, UniProt Q9NZQ7 19-238, limits assumed, biotinylated); test: competition ELISA B7.1/PDL1
T5 construct: also called biotinylated PDL1
Outline: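 IC₅₀ was derived by four-parameter logistic fitting of reference-subtracted A450/690 readings. The signal came from streptavidin-polyHRP40 (10 ng/ml) with a 6-minute TMB reaction detecting biotinylated PDL1 bound to the plate. Pre-mixed samples sat 1 h at RT before a 1.5 h plate incubation.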

biotinylated human PDL1 [6] = target: T5, biotinylated human PDL1; test: competition ELISA PD-1/PDL1
human serum albumin = target: T6, human serum albumin (human, UniProt P02768 25-609); test: SPR, SA coupled to chip, pH 5.5
T6 construct: Coupled directly to the CM5 chip; also called HSA; human SA
Protocol: Affinity of molecules to serum albumin (SA) of the different species was determined by SPR measurements using a Biacore T200 device (GE Healthcare). SA was directly coupled to a CM5 sensor chip (GE Healthcare) using amine coupling chemistry. […] The assay was run in a 1× PBS-Tween buffer at pH 5.5.

[7] = target: T7, mouse CD137-Fc chimeric protein (mouse, UniProt P20334 24-187, limits assumed); test: SPR
T7 sequence (looked up): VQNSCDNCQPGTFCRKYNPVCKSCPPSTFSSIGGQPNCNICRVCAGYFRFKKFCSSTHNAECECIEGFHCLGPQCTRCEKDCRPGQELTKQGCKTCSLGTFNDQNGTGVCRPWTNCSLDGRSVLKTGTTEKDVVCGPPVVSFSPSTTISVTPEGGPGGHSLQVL
Outline: as §1

[8] = target: T4, CD137 on Jurkat NFkB reporter cells; test: cell-based or functional assay; remark: listed apart in the source
[9] = target: T4, CD137 on Jurkat NFkB reporter cells; test: cell-based or functional assay; remark: listed apart in the source
[10] = target: T4, CD137 on Jurkat NFkB reporter cells; test: cell-based or functional assay; remark: listed apart in the source
[11] = target: T4, CD137 on Jurkat NFkB reporter cells; test: cell-based or functional assay; remark: listed apart in the source

B1: PRO1480 (other)
chain: DIQMTQSPASLSASVGDRVTITCQASQSIGTYLAWYQQKPGKPPKLLIYRAFILASGVPSRFSGSGSGTDFTLTISSLQPEDFATYYCQSNFYSDSTTIGPNAFGTGTKVTVLGGGGGSEVQLVESGGGLVQPGGSLRLSCAASGFSFSANYYPCWVRQAPGKGLEWIGCIYGGSSDITYDANWTKGRFTISRDNSKNTVYLQMNSLRAEDTAVYYCARSAWYSGWGGDLWGQGTLVTVSSGGGGSGGGGSGGGGSGGGGSIQMTQSPSSLSASVGDRVTITCQASQSISNRLAWYQQKPGKAPKLLIYSASTLASGVPSRFSGSGSGTDFTLTISSLQPEDFATYYCQSTYYGNDGNAFGTGTKVTVLGGGGGSEVQLVESGGGLVQPGGSLRLSCAASGFSFNSDYWIYWVRQAPGKGLEWIASIYGGSSGNTQYASWAQGRFTISRDNSKNTVYLQMNSLRAEDTAVYFCARGYVDYGGATDLWGQGTLVTVSSGGGGSGGGGSIQMTQSPSSLSASVGDRVTITCQSSESVYSNNQLSWYQQKPGQPPKLLIYDASDLASGVPSRFSGSGSGTDFTLTISSLQPEDFATYYCAGGFSSSSDTAFGGGTKLTVLGGGGGSGGGGSGGGGSGGGGSEVQLVESGGGLVQPGGSLRLSCAASGFSLSSNAMGWVRQAPGKGLEYIGIISVGGFTYYASWAKGRFTISRDNSKNTVYLQMNSLRAEDTATYFCARDRHGGDSSGAFYLWGQGTLVTVSS
notes: trispecific scDb-scFv; also called 38-27-A11 sc02 scDb-i/37-20-B03 sc09.1 scDb-o/19-01-H04 sc03 scFv
kon (Fc tagged human PDL1): 3.5e+06 M⁻¹ s⁻¹ | Kd [1]: 0.47 nM | koff [1]: 0.0003 s⁻¹ | kon [1]: 640000 M⁻¹ s⁻¹ | Kd [2]: 0.0085 nM | koff [2]: 3.4e-05 s⁻¹ | kon [2]: 4e+06 M⁻¹ s⁻¹ | Kd (Fc tagged human CD137): 0.37 nM | koff (Fc tagged human CD137): 0.00022 s⁻¹ | kon (Fc tagged human CD137): 580000 M⁻¹ s⁻¹ | IC50 (ng/ml), NF-AT potency assay, +HSA (human PDL1 on cells): 84.8 ng/mL | rel. IC50 (avelumab/test), +HSA (human PDL1 on cells): 0.61 fold | IC50 (ng/ml) (EC50 in Table 16C), NFkB reporter, HCC827 + IFNg, 24 h, +HSA [3]: 4.67 ng/mL | rel. IC50 (PRO1186/test), 24 h [3]: 1 fold | Area under the curve (calculated using PRO885 normalized data), first line (6 h by the order of the upper part) [4]: 232 | Area under the curve (calculated using PRO885 normalized data), second line (24 h by the order of the upper part) [4]: 261 | EC50 [ng/ml], NF-kB reporter, HCC827 + IFNg, +HSA, 6 h [4]: 6.44 ng/mL | IC10/EC90 ratio, first line (6 h by the order of the upper part) [4]: 43 | IC10/EC90 ratio, second line (24 h by the order of the upper part) [4]: 360 | Maximum NF-kB activation (rel. to PRO1186) [%], first line (6 h by the order of the upper part) [4]: 114% | Maximum NF-kB activation (rel. to PRO1186) [%], second line (24 h by the order of the upper part) [4]: 121% | rel. Area under the curve (AUCsample/AUCPRO1186), first line (6 h by the order of the upper part) [4]: 1.2 fold | rel. Area under the curve (AUCsample/AUCPRO1186), second line (24 h by the order of the upper part) [4]: 1.29 fold | rel. EC50 (EC50, PRO1186/EC50, sample), NF-kB reporter, 6 h [4]: 1.93 fold | rel. EC50 (EC50, PRO1186/EC50, sample), NF-kB reporter, 24 h [4]: 1 fold | rel. IC10/EC90 (ratio of sample/ratio of PRO1186), first line (6 h by the order of the upper part) [4]: 0.54 fold | rel. IC10/EC90 (ratio of sample/ratio of PRO1186), second line (24 h by the order of the upper part) [4]: 1.86 fold | IC50 (biotinylated human PDL1 [5]): 11.2 ng/mL | rel. IC50 (IC50 avelumab/IC50 test) (biotinylated human PDL1 [5]): 1.32 fold | IC50 (biotinylated human PDL1 [6]): 2.27 ng/mL | rel. IC50 (IC50 avelumab/IC50 test) (biotinylated human PDL1 [6]): 1 fold | kon (human serum albumin): 327000 M⁻¹ s⁻¹

B2: PRO1123 (bispecific antibody)
chain: DIQMTQSPSSLSASVGDRVTITCQASQSINDYLAWYQQKPGKAPKLLIYKASTLASGVPSRFSGSGSGTDFTLTISSLQPEDFATYYCQQGYIITDIDNVFGTGTKVTVLGGGGGSQVQLQESGPGLVKPSETLSLTCKVSGFSFSNSYWICWVRQPPGKGLEWIGCTFVGSSDSTYYANWAKGRVTISVDSSKNQVSLKLSSVTAADTAVYFCARHPSDAVYGYANNLWGQGTLVTVSSGGGGSGGGGSGGGGSGGGGSIQMTQSPSSLSASVGDRVTITCQASQSINNVLAWYQQKPGKPPKLLIYRASTLASGVPSRFSGSGSGTDFTLTISSLQPEDFATYYCQSSYGNYGDFGTGTKVTVLGGGGGSQVQLQESGPGLVKPSETLSLTCKVSGFSFSSGYDMCWIRQPPGKGLEWIGCVVAGSVDITYYASWAKGRVTISVDSSKNQFSLKLSSVTAADTAVYYCARKDAYSDAFNLWGQGTLVTVSS
notes: scDb; also called 38-02-A04 sc05 IF scDb-i/33-03-G02 sc01 scDb-o
koff (Fc tagged human PDL1): 0.00017 s⁻¹ | kon (Fc tagged human PDL1): 2.3e+06 M⁻¹ s⁻¹ | Kd [1]: 1.3 nM | koff [1]: 0.00033 s⁻¹ | kon [1]: 260000 M⁻¹ s⁻¹ | Kd [7]: 410 nM | koff [7]: 0.027 s⁻¹ | kon [7]: 65000 M⁻¹ s⁻¹ | Kd (Fc tagged human CD137): 0.58 nM | koff (Fc tagged human CD137): 0.00027 s⁻¹ | kon (Fc tagged human CD137): 310000 M⁻¹ s⁻¹ | EC50, NFkB reporter, CHO-PDL1 [8]: 5.75 ng/mL | Top of curve fit, NFkB reporter, CHO-PDL1 [8]: 219 | EC50, NFkB reporter, HCC827 without IFNg [9]: 16.1 ng/mL | Top of curve fit, NFkB reporter, HCC827 without IFNg [9]: 123 | EC50, NFkB reporter, HCC827 with IFNg [10]: 11.9 ng/mL | Top of curve fit, NFkB reporter, HCC827 with IFNg [10]: 154 | IC50 (ng/ml), NFkB reporter, CHO-PD-L1 [11]: 5.75 ng/mL | IC50 (ng/ml), NFkB reporter, HCC827 + IFNg [11]: 11.4 ng/mL | IC50 (ng/ml), NFkB reporter, HCC827 - IFNg [11]: 16.1 ng/mL | max. activation (%), NFkB reporter, CHO-PD-L1 [11]: 219% | max. activation (%), NFkB reporter, HCC827 + IFNg [11]: 154% | max. activation (%), NFkB reporter, HCC827 - IFNg [11]: 123% | rel. IC50 (urelumab/test), NFkB reporter, CHO-PD-L1 [11]: 18.1 fold | rel. IC50 (urelumab/test), NFkB reporter, HCC827 + IFNg [11]: 12.2 fold | rel. IC50 (urelumab/test), NFkB reporter, HCC827 - IFNg [11]: 6.82 fold

B3: PRO1124 (bispecific antibody)
chain: DIQMTQSPSSLSASVGDRVTITCQASQSINDYLAWYQQKPGKAPKLLIYKASTLASGVPSRFSGSGSGTDFTLTISSLQPEDFATYYCQQGYIITDIDNVFGTGTKVTVLGGGGGSQVQLQESGPGLVKPSETLSLTCKASGFSFSNSYWICWVRQPPGKGLEWIGCTFVGSSDSTYYANWAKGRVTISKDSSKNQVSLKLSSVTAADTAVYFCARHPSDAVYGYANNLWGQGTLVTVSSGGGGSGGGGSGGGGSGGGGSLQMTQSPSSLSASVGDRVTITCQASQSINNVLAWYQQKPGKPPKLLIYRASTLASGVPSRFSGSGSGTDFTLTISSLQPEDFATYYCQSSYGNYGDFGTGTKVTVLGGGGGSQVQLQESGPGLVKPSETLSLTCKVSGFSFSSGYDMCWIRQPPGKGLEWIGCVVAGSVDITYYASWAKGRVTISVDSSKNQFSLKLSSVTAADTAVYYCARKDAYSDAFNLWGQGTLVTVSS
notes: scDb; also called 38-02-A04 sc06 Full scDb-i/33-03-G02 sc01 scDb-o
koff (Fc tagged human PDL1): 0.0002 s⁻¹ | kon (Fc tagged human PDL1): 3.1e+06 M⁻¹ s⁻¹ | koff [1]: 0.00033 s⁻¹ | kon [7]: 200000 M⁻¹ s⁻¹ | Kd (Fc tagged human CD137): ≤ 0.015 nM | fold improvement of affinity against PRO885 (Fc tagged human CD137): > 200 fold | koff (Fc tagged human CD137): < 1e-05 s⁻¹ | kon (Fc tagged human CD137): 680000 M⁻¹ s⁻¹ | EC50, NFkB reporter, CHO-PDL1 [8]: 3.68 ng/mL | Top of curve fit, NFkB reporter, CHO-PDL1 [8]: 229 | EC50, NFkB reporter, HCC827 without IFNg [9]: 5.62 ng/mL | Top of curve fit, NFkB reporter, HCC827 without IFNg [9]: 113 | EC50, NFkB reporter, HCC827 with IFNg [10]: 4.83 ng/mL | Top of curve fit, NFkB reporter, HCC827 with IFNg [10]: 188 | IC50 (ng/ml), NFkB reporter, CHO-PD-L1 [11]: 3.68 ng/mL | IC50 (ng/ml), NFkB reporter, HCC827 + IFNg [11]: 4.83 ng/mL | IC50 (ng/ml), NFkB reporter, HCC827 - IFNg [11]: 5.62 ng/mL | max. activation (%), NFkB reporter, CHO-PD-L1 [11]: 229% | max. activation (%), NFkB reporter, HCC827 + IFNg [11]: 188% | max. activation (%), NFkB reporter, HCC827 - IFNg [11]: 113% | rel. IC50 (urelumab/test), NFkB reporter, CHO-PD-L1 [11]: 23.5 fold | rel. IC50 (urelumab/test), NFkB reporter, HCC827 + IFNg [11]: 22.4 fold | rel. IC50 (urelumab/test), NFkB reporter, HCC827 - IFNg [11]: 19.9 fold
